The values below come from article PMC8304084, “A Concerted Action of UBA5 C-Terminal Unstructured Regions Is Important for Transfer of Activated UFM1 to UFC1” (International Journal of Molecular Sciences, 2021).

One assay deals with T1, UFC1 (Homo sapiens, UniProt Q9Y3C8).
T1 construct: Full length UFC1, residues 1–167; modified ubiquitin tag (Ub19) with TEV site (N, cleaved yes); made in house; host or cells: E. coli T7 Express
T1 sequence (Q9Y3C8 1-167): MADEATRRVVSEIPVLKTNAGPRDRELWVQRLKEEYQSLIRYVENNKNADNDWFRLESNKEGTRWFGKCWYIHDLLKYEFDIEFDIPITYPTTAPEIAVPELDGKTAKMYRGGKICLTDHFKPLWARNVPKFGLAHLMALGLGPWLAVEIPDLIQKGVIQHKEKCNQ
Put plainly: In vitro thioester formation (ufmylation) assay, UFC1~UFM1 conjugate. The format is biochemical. As to conditions: 70 µM UFM1, 20 µM UFC1, 20 µM UBA5 construct, 1 mM ATP, 50 mM HEPES pH 7.5, 22 °C. On the procedure: First, we analyzed the effect of the UBA5 C-terminus on UFM1 transfer to UFC1 with an in vitro thioester formation assay (Figure 1B–E).
Ufmylation reaction assays were adopted from work of Xie. Briefly, 70 µM UFM1, 20 µM UFC1 and 20 µM of different UBA5 constructs were mixed in reaction buffer (50 mM HEPES pH = 7.5, 100 mM NaCl, 5 mM MgCl2). After starting the reaction with addition of 1 mM ATP, the reaction mix was incubated at 22 °C for the desired time. To quench the reaction and prepare electrophoretic samples, 1 µL of the reaction mix was added to 99 µL 1x non-reducing SDS loading buffer and frozen in liquid nitrogen. Sample content was visualized by sodium dodecyl sulfate polyacrylamide gel electrophoresis (SDS-PAGE). The transfer to polyvinylidene difluoride (PVDF) membrane was performed via a Trans-Blot® Turbo™ Transfer System (Bio-Rad, München, Germany). After transfer the membrane was blocked with TBST (Tris-buffered saline with Tween20 buffer, 20 mM Tris, 150 mM NaCl and 0.1% TWEEN 20) containing 5% w/v nonfat dry milk for 1 h, followed by α-UFC1 antibody incubation over night at 4 °C (ab189251 abcam, 1:10,000 in TBST containing 5% w/v nonfat dry milk). After washing with TBST the membrane was incubated with secondary antibody (anti-rabbit-HRP) for 1 h at RT and again washed with TBST. […] For quantification of UFC1 ufmylation coloc2 software implemented in ImageJ was used.

Assay [1] relates to UBA5. As to conditions: cited from earlier work. The text has this: Another conserved region in UBA5 is located at it very C-terminus (R3, residues 393–404) and is predicted to have a helical conformation. […] UFC1, the only known E2 enzyme for UFM1, was characterized structurally a few years after discovery of the UFM1 cascade. […] In our structure we observed that the UFC1 K33 sidechain forms an intermolecular hydrogen bond with the UBA5 D389 sidechain (Figure 3F). In contrast, UFC1 Q31 is not in contact with any of the UBA5 R3 residue and could not affect the UBA5:UFC1 interaction.

In assay [2] the test system is UBA5. To be noted: in vitro; cited from earlier work. The text has this: The UBA5 C-terminal part (Figure 1A) plays a complex regulatory role, consisting of a few conserved regions that mediate interaction of UBA5 with other key players in the ufmylation cascade. The first sequence is a conserved region (R1, residues 334–348), interacting with UFM1 [10, 29, 30, 31, 32] and also with LC3/GABARAP proteins. This region (called LIR/UFIM by its dual nature) is important for the initial binding of UFM1 to UBA5 [10, 29, 31, 32] and for the following UFM1 activation in a trans-fashion. Trans-activation means that UBA5 forms an active ho ...

Where two headings read alike, the source gives them in different places.

B1: AD^1–330: UBA5 adenylation domain, residues 1–330 (protein, UniProt Q9GZZ9 1-330, looked up, fragment)
chain: MAESVERLQQRVQELERELAQERSLQVPRSGDGGGGRVRIEKMSSEVVDSNPYSRLMALKRMGIVSDYEKIRTFAVAIVGVGGVGSVTAEMLTRCGIGKLLLFDYDKVELANMNRLFFQPHQAGLSKVQAAEHTLRNINPDVLFEVHNYNITTVENFQHFMDRISNGGLEEGKPVDLVLSCVDNFEARMTINTACNELGQTWMESGVSENAVSGHIQLIIPGESACFACAPPLVVAANIDEKTLKREGVCAASLPTTMGVVAGILVQNVLKFLLNFGTVSFYLGYNAMQDFFPTMSMKPNPQCDDRNCRKQQEEYKKKVAALPKQEVIQE
modifications: adenylation domain
Consider B1, for which the “UFC1~UFM1 conjugation” value with UFC1 (7 h) turned out to be 80%. Besides, in the assay with UFC1 (within 30 min, Western blot, triplicates), the “UFC1 conjugated to UFM1 (UFC1~UFM1)” value was “less than 5%”.

B2: UFC1 K33A: UFC1 K33A mutation, literature (protein, UniProt Q9Y3C8 1-167, looked up, variant K33A)
Ubiquitin-fold …: MADEATRRVVSEIPVLKTNAGPRDRELWVQRLAEEYQSLIRYVENNKNADNDWFRLESNKEGTRWFGKCWYIHDLLKYEFDIEFDIPITYPTTAPEIAVPELDGKTAKMYRGGKICLTDHFKPLWARNVPKFGLAHLMALGLGPWLAVEIPDLIQKGVIQHKEKCNQ
Regarding B2, the “effect of UFC1 mutation on UBA5 binding and UFM1 transfer” value with UBA5 [1] is “significantly reduces both UBA5 binding and UFM1 transfer from UBA5 to UFC1”; with UBA5 [1] (listed as K33A), “impaired UBA5 binding and UFM1 transfer to UFC1”.

B3: GABARAP: GABARAP, residues 3–116 (protein)
chain: GAMFVYKEEHPFEKRRSEGEKIRKKYPDRVPVIVEKAPKARIGDLDKKKYLVPSDLTVGQFYFLIRKRIHLRAEDALFFFVNNVIPPTSATMGQLYQEHHEEDFFLYIAYSDESVYG
modifications: left off: modified ubiquitin tag (Ub19), N-terminal, cleaved
Consider B3, for which the “effect on UFM1 binding to UBA5” value in the assay on UBA5 [2] is “inhibit UFM1 binding to UBA5”.
